# According to paper PMC9464622, “The collectin SP-A and its trimeric recombinant fragment protect alveolar epithelial cells from the cytotoxic and proinflammatory effects of human cathelicidin in vitro” (Frontiers in Immunology, 2022):
# Assays:
# [1] = biological target: Recombinant trimeric fragment of human SP-A1 (rfhSP-A) (human); experiment: other fluorescence titration; intrinsic tryptophan fluorescence of SP-A (75 nM) or rfhSP-A (52 nM) titrated with LL-37; 25°C, 5 mM Tris-HCl pH 7.4, without NaCl; excitation 295 nm; fit to the Hill equation; apparent KD
# [2] = biological target: Human surfactant protein A (native SP-A) (human) (UniProt Q8IWL2); experiment: other fluorescence titration; intrinsic tryptophan fluorescence of SP-A (75 nM) or rfhSP-A (52 nM) titrated with LL-37; 25°C, 5 mM Tris-HCl pH 7.4, with 150 mM NaCl; excitation 295 nm; fit to the Hill equation; apparent KD
# [3] = biological target: Recombinant trimeric fragment of human SP-A1 (rfhSP-A) (human); experiment: as above
# [4] = biological target: Human surfactant protein A (native SP-A) (human) (UniProt Q8IWL2); experiment: native gel or EMSA + AUC + other: electron microscopy; degree of oligomerization of isolated SP-A: electrophoresis under nondenaturing conditions, electron microscopy and analytical ultracentrifugation, as reported elsewhere (refs 28, 29)
Kd [1],Kd [2],Kd [3],stoichiometry N [4],Substance
0.0735 nM,0.45 nM,1.2 nM,,Human cathelicidin LL-37 (peptide)
,,,> 18 subunits,Human surfactant protein A (native SP-A) (from UniProt Q8IWL2 21-248) (natural protein)
